For assay [1], the target named is ChlI, C-terminally attached to the surface via His6 tag (Synechocystis) (UniProt P51634). Kind of assay: single molecule force spectroscopy.
Another assay concerns the target ChlD wild-type (Synechocystis, UniProt P72772 1-676). Kind of assay: MST.
A further assay addresses ChlD R208A (Synechocystis, UniProt P72772 1-676, R208A). As to the kind of experiment: MST.
Another assay deals with ChlD R289A (Synechocystis, UniProt P72772 1-676, R289A). Kind of assay: MST.
Chain of ChlD R289A (P72772 whole entry R289A): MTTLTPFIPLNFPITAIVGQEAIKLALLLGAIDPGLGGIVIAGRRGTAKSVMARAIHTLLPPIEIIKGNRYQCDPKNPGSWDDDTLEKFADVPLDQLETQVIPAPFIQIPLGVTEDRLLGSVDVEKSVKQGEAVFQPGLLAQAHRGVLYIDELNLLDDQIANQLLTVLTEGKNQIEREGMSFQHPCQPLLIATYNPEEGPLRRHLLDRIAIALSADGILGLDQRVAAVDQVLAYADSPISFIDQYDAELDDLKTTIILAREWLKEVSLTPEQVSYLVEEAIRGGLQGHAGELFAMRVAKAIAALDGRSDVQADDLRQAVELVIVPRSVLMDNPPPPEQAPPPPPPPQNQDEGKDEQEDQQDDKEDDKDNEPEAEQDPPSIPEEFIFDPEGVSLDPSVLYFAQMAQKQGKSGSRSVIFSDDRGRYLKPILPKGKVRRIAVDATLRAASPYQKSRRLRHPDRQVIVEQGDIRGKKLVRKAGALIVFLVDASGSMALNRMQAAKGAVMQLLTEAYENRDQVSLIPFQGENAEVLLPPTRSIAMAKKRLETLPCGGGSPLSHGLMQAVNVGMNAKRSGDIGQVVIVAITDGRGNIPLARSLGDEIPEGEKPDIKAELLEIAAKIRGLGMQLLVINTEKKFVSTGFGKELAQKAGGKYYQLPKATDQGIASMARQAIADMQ

The Kd is a measure of binding affinity in units of concentration.

Chain of ChlD wild-type (P72772 whole entry): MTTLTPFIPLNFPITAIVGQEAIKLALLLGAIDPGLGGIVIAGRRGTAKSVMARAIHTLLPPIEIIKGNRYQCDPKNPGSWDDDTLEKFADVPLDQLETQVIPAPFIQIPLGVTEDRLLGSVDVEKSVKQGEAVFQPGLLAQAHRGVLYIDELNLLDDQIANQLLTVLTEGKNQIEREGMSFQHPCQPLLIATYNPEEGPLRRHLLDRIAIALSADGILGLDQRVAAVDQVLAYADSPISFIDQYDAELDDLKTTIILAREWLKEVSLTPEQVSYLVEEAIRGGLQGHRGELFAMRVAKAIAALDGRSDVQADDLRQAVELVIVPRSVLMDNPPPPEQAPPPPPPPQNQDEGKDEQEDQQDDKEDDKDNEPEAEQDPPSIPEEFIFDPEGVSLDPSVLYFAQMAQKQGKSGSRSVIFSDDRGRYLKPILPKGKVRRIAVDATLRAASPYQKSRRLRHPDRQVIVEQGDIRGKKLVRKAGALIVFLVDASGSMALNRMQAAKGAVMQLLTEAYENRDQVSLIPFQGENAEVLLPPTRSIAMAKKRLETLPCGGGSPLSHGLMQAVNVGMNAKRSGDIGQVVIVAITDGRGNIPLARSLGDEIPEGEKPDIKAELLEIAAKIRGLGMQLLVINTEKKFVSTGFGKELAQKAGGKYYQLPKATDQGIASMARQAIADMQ
Chain of ChlD R208A (P72772 whole entry R208A): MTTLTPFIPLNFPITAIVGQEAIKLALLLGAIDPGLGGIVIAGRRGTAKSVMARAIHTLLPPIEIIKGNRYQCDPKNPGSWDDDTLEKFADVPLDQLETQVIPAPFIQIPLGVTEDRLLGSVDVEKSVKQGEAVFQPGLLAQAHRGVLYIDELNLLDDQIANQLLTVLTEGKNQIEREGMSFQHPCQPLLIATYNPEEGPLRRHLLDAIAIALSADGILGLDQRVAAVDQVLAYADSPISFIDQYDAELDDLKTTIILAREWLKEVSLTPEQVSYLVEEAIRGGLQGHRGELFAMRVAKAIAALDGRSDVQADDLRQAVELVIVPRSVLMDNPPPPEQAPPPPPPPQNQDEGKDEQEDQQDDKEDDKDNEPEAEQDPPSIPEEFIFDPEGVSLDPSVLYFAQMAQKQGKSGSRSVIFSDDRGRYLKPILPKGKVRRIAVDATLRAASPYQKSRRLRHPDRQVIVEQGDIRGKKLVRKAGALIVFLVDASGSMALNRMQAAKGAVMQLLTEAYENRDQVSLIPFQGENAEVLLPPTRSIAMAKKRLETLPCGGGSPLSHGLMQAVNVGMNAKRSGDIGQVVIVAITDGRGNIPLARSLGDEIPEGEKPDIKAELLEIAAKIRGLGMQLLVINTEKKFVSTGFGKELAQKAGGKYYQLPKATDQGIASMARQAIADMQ

As for “ChlD tagged at the C-terminus with a His6 sequence (from UniProt P72772 1-676) (natural protein)”, in assay [1], the interaction probability was 30.5%, the modal interaction force was determined as 108 pN and the rupture force is 109 pN.

B1: ChlI C244S Alexa Fluor 488 (natural protein, Synechocystis, UniProt P51634 1-357, looked up)
chain: MTATLAAPSKTRRVVFPFTAIVGQDEMKLALLLNVIDPKIGGVMIMGDRGTGKSTTIRALADLLPEIEVVANDPFNSSPSDPEMMSEEVRIRVDSQEPLSIVKKKVTMVDLPLGATEDRVCGTIDIEKALSEGVKAFEPGLLAKANRGILYVDEVNLLDDHLVDVLLDSAAGGWNTVEREGISIRHPARFVLVGSGNPEEGELRPQLLDRFGMHAEIRTVREPELRVKIVEQRTEFDQNPHPFSDQYQTEQEALQAKIVNAQNLLPQVTIDYDYRVKVSEVCAELDVDGLRGDIVTNRAAKALAAFEGRTEVTVDDISRVIVLCLRHRLRKDPLESIDSGSKVEKVFKRVFGVVDEA
modifications: Alexa Fluor 488 C5 maleimide label (labelled residue not stated)
As to B1, the results for the Kd with ChlD wild-type, with ChlD R208A and with ChlD R289A were 7.6 ± 0.8 nM, 328 ± 67.7 nM and 2540 ± 219 nM, respectively.

The record behind these values is publication PMC4882731 (Journal of the American Chemical Society, 2016).
